Values of other authors, collected in publication PMC7662479.
pKd: −log10 of the molar value.

Target: Angiopoietin-2 (Homo sapiens) (UniProt O15123)
UniProt O15123, sequence (O15123 19-496): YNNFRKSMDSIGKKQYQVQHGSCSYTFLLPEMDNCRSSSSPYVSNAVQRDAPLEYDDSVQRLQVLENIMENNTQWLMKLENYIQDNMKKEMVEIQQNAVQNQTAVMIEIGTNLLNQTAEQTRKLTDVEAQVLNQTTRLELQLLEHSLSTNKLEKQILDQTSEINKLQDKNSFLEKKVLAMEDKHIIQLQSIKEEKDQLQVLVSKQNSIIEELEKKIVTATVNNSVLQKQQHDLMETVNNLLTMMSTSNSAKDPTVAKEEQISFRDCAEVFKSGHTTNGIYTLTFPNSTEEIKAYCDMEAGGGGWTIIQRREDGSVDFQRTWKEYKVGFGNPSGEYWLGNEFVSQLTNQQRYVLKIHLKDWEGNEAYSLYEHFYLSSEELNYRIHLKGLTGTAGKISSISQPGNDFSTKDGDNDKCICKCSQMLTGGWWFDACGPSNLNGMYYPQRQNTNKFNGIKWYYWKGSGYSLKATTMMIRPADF

Q: With nesvacumab as the substance, how does the pKd read?
A: 10.62
